What was measured:
[1] = test system: FGFR4-dependent phosphorylation of FRS2; assay: Western blot of FGF19-induced FRS2/FGFR4 phosphorylation in HCC cells; assay type: cell-based, human; conditions: Huh7; antibodies 100 or 200 ug/mL, BLU9931 0.1 uM or 1 uM; FIG. 21
Method: FIG. 21. Inhibition of FGF19-dependent FGFR4 and FRS2 phosphorylation in Huh7 cells treated with the anti-FGFR4 chimeric antibodies analyzed by Western Blot. Cells were treated with 100 or 200 ug/mL of each antibody, with 0.1 uM or 1 uM BLU9931, or with PBS prior of the addition of FGF19/heparin under the experimental conditions described in the Example 8.
FIG. 31. […] (A) Graph of the absorbance values at 450 nm obtained from a FGFR4-Fc-dependent solid phase binding assay, as a function of the concentration of ab41948. Serial 1:3 dilutions (10 experimental points from 0.00005 ug/mL to 1 ug/mL) were tested in triplicate on the extracellular regions of FGFR4 fused with human Fc. The continuous line is the experimental one while the dashed line is that obtained by fitting experimental data to the “one site binding” equation. […] Inhibition curves were derived by 4P logistic fitting of the experimental data with the KaleidaGraph software, based on the residual absorbance at 450 nm (% of PBS control) at increasing antibody concentrations (1:3 serial dilutions from 0.001 to 10 ug/mL). […]
BLU9931 was included as positive control Ih before cell lysis at concentrations of […]. Total protein lysates in SDS were prepared and analyzed by Western Blot using an anti-phospho-FRS2 antibody (Tyrl96, Cell Signalling), an anti-FRS2 antibody (LSBio) and an anti-GAPDH antibody (Sigma-Aldrich). […]

[2] = test system: FGFR4 signalling pathway (CYP7A1, CTGF mRNA)

Compound | inhibition of FGF19-induced FGFR4 and FRS2 phosphorylation [1] | increase of CTGF expression [2] | reduction of CYP7A1 expression [2]
C=CC(=O)Nc1cccc(C)c1Nc1ncc2cc(-c3c(Cl)c(OC)cc(OC)c3Cl)ccc2n1 [BLU9931, reference compound] | could inhibit FGF19-induced FGFR4 and FRS2 phosphorylation | – | –
FGF19: recombinant FGF19 (Peprotech), FGFR4 ligand | – | about 2.5 fold | about 5 fold
